{
  "source": "the nanobody polyreactivity screen of Harvey et al. (2022)",
  "data": [
    {"experiment": "yeast display, Sf9 membrane polyspecificity reagent, FACS + sequencing; frameworks hold sequencing errors", "outline": "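Sorting gates, low and high (top ~1%), were placed on anti-HA fluorescence to track expression and on streptavidin fluorescence to track reagent binding. A clone's polyreactivity label is taken from the gate it came out of. The reagent was 10% biotinylated, detergent-solubilized Sf9 membrane, applied for 1 hour at 4 °C to galactose-induced yeast display cells.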", "values": [
      {"sequence": "QVQLVESGGGLVQAGGSLRLSCAASGFIIKYYAMGWYRQAPGKERELVAAIDGSSASTYYADSVKGRFTISRDNAKNTVYLQMNSLKPEDTPVYYCAVARLRRGGVQYGYWGQGTQVTVSS", "polyreactivity (PSR sort gate)": "high polyreactivity"},
      {"sequence": "QVQLVESGGGLVQAGGSLRLSCAASGFIIPGYAMGWYRQAPGKEREFVAAISRSGGSTYYADSVKGRFTISRDNAKNTVYLQMNSLKPEDSAVYYCATRARGYTGYDYWGQGTQVTVSS", "polyreactivity (PSR sort gate)": "high polyreactivity"},
      {"sequence": "QVQLVESGGGLVQAGGSLRLSCAASGFIIRGNVMGWYRQAPGKERELVAAISGRGGSTYYADSVKGRFTISRDNAKNTVYLQMNSLKPEDTAVYYCNAAGLYNSRLDYWGQGTQVTVSS", "polyreactivity (PSR sort gate)": "high polyreactivity"},
      {"sequence": "QVQLVESGGGLVQAGGSLRLSCAASGFIIRRYAMGRYRQAPGKEREMVASIDRSGASTYYADSVKGRLTISRDNAKYTVYLQMNSLKPEDTAVYYCNKAFAWTGWYSVQGDYWGQGTQVTVSS", "polyreactivity (PSR sort gate)": "high polyreactivity"},
      {"sequence": "QVQLVESGGGLVQAGGSLRLSCAASGFIIVYYAMGWYRQAPGKERELVAGISSGGSTYYADSVKGRFTISRDNAKNTVYLQMNSLKPEDTAVYYCATRYLYRGYSYFAYDYWGQGTQVTVSS", "polyreactivity (PSR sort gate)": "low polyreactivity"},
      {"sequence": "QVQLVESGGGLVQAGGSLRLSCAASGFILAQNAKGWSRQAPGKEWELVAAISRRGGRTSYADSVKGRFTISRDNAKNTVYLQMNSLKPEDTAVYYCAALPPRASSDAGGWYVAEDYWGQGTQVTVSS", "polyreactivity (PSR sort gate)": "high polyreactivity"},
      {"sequence": "QVQLVESGGGLVQAGGSLRLSCAASGFILATNAMGWSRQAPGKERELVAAISYAGGSTNYADSVKGRFTISRDNAKNTVYVPMNSLKPEDTAVYYCNAGGTVIWAWYCPVYSWGHGTQVTVSS", "polyreactivity (PSR sort gate)": "low polyreactivity"},
      {"sequence": "QVQLVESGGGLVQAGGSLRLSCAASGFILDTYGMGWYRQAPGKERELVAAISQSDVSTYYADSVKGRFTISRDNAKNTVYLQMNSLKPEDTAVYYCAADRGGLRWFWQVLYDYWGQGTQVTVSS", "polyreactivity (PSR sort gate)": "low polyreactivity"},
      {"sequence": "QVQLVESGGGLVQAGGSLRLSCAASGFILGYNAMGLYRQAPGKERELVAAINGGSGSTYYADSVKGRFTISRDNAKNTVYLQMNSLKPEDTAVYYCAAEVTWAFFYERDYWGQGTQVTVSS", "polyreactivity (PSR sort gate)": "high polyreactivity"},
      {"sequence": "QVQLVESGGGLVQAGGSLRLSCAASGFILGYNAMGWYRQEPGKERELVADITFSGGGTNYADSVKGRFTISRDNAKNTVYLQMNSLKPEDTAVYYCNAAAFSQLRVRYDYWGQGTQVTVSS", "polyreactivity (PSR sort gate)": "low polyreactivity"},
      {"sequence": "QVQLVESGGGLVQAGGSLRLSCAASGFILKFYAMGWYRQAPGKERELVAAISRRGGSTYYADSVKGRFTISRDNAKNTVYLQMNSLKPEDTAVYHCAKDGTTSRVSDSSDYWGQGTQVTVSS", "polyreactivity (PSR sort gate)": "high polyreactivity"},
      {"sequence": "QVQLVESGGGLVQAGGSLRLSCAASGFILKYYAMGWYRQAPGKERELVAAISVRGGSTYYADSVKGRFTISRDNAKNTVYLQMNSLKPEDTAVYYCAARHRYGGAFVDYDYWGQGTQVTVSS", "polyreactivity (PSR sort gate)": "high polyreactivity"},
      {"sequence": "QVQLVESGGGLVQAGGSLRLSCAASGFILLDNAMGWYRQAPGKEREFVASINISGDRTFYADSVKGRFTISRDNAKNTDYLQMNSLKPEDTAVYYCNALPSEPMVYWGQGTQVTVSS", "polyreactivity (PSR sort gate)": "low polyreactivity"},
      {"sequence": "QVQLVESGGGLVQAGGSLRLSCAASGFILLDNGMGWYREAPGKERELVAAITYSGDTTYYADSVKGRFTISRDNAKNTVYLQMNSLKPEDTAVYYCNADNDKWTTGHDYWGQGTQVTVSS", "polyreactivity (PSR sort gate)": "low polyreactivity"},
      {"sequence": "QVQLVESGGGLVQAGGSLRLSCAASGFILLQYVMGWYRQAPGKERELVAAITSGGSTYYADSVKGRFTISRDNAKYTVYLQMNSLKPEDTAVYYCSTDVADNTFYALYGYDYWGQGTQVTVSS", "polyreactivity (PSR sort gate)": "low polyreactivity"},
      {"sequence": "QVQLVESGGGLVQAGGSLRLSCAASGFILLYYAMGWYRQAPGKERELVAANSWTGGRTYYADSVKGRFTISRDNAKNTVYLQMTSLKPEDSAVYYCNTDKFFGRKYGYWGQGTQVTVSS", "polyreactivity (PSR sort gate)": "low polyreactivity"}
    ]}
  ]
}
